Measured values from patent US20210008162A1 (OP T, published 2021).
Where no end group is shown, it is not given here.

Tests used:
[1] = biological target: T1, mouse CD40 on cells (CD40+ T cells / Th40 cells and B cells of NOD mice; mouse CD4+CD40+ cells in culture) (mouse, UniProt P27512 20-289); assay: KGYY-15 bound to live CD4+CD40+ cells kept in culture for 10 days, percent bound over days post treatment; the text says 'human or mouse' cells
T1 construct: whole, on cells; The target is inferred from CD40+ cells; No purified CD40 was tested; also called CD40 protein
T1 sequence (looked up): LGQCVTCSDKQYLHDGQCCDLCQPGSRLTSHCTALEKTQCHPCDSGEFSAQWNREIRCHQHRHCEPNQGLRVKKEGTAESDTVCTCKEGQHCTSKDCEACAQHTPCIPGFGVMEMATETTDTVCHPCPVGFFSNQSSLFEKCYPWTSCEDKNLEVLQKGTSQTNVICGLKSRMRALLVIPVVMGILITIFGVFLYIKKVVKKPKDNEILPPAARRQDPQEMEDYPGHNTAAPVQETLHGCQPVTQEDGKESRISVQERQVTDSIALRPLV

[2] = biological target: T2, human CD40 on CD4+CD40+ cells (human, UniProt P25942 21-277); assay: as above
T2 construct: whole, on cells
T2 sequence (P25942 21-277): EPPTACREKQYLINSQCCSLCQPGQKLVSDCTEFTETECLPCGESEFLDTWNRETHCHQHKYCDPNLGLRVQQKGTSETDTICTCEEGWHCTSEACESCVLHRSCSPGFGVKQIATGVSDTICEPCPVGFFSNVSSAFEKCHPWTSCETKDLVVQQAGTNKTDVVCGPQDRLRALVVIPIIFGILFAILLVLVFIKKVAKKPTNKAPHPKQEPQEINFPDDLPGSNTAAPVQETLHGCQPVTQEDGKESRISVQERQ

binding result [1]: binds | binding result [2]: binds
Binder: VLQWAKKGYYTMKSN-NH2 (also called 15-mer-Form 1) [KGYY-15 (SEQ ID NO:11)]
